Laboratory results taken from the nanobody polyreactivity screen of Harvey et al. (2022).

Test: yeast display, Sf9 membrane polyspecificity reagent, FACS + sequencing; frameworks hold sequencing errors
How it was run: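 A nanobody's polyreactivity label depends on the gate it was sorted from. Yeast display cells were stained with 10% biotinylated, detergent-solubilized Sf9 membrane reagent for 1 hour at 4 °C, enriched on streptavidin microbeads and sorted by FACS. The low and high (top ~1%) gates were set on anti-HA fluorescence for expression and streptavidin fluorescence for reagent binding.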

Row | Sequence | polyreactivity (PSR sort gate)
1 | QVQLVESGGGLVQAGGSLRLSCAASGRTLQWYAMGWYRQAPGKERELVATISSGGSTKYADSVKGRFTISRDNAKNTVYLQMNSLKPEDTAVYYCNAQPYGIYYHRYYYWGQGTQVTVSS | low polyreactivity
2 | QVQLVESGGGLVQAGGSLRLSCAASGRIFSGYVKGWYRQAPGKERELVASISRGGSTNYADSVKGRFTISRDNAKNTVYLQMNSLKPEDTAVYYCNKRWFAPPPYSYVRSYDYWGQGTQVTVSS | low polyreactivity
3 | QVQLVESGGGLVQAGGSLRLSCAASGIIFGTNAMGWYRQAPGKERELVAYITSGGSTYADSVKGRFTISRDKAKNTVYLQMNSLKPEDTAVSYCNADTGKWGGNGWYEFDYWGQGTQVTVSS | low polyreactivity
4 | QVQLVESGGGLVQAGGSLRLSCAASGRTFVPYAMGWYRQAHGKERELVAAIDKSDGSTYYADSVKGRFTISRDNAKNTVYLKMNSLKPEDSAVYFCNAEGYTYRYYTIYNYCGQGTQVTVSS | high polyreactivity
5 | QVQLVESGGVLDQAGRSLRLSCAASGRTFNRYAMGWYRQAPGKERDLVAAISSSGGSTYYADSVKGRFTISRDNAKNTVYLQMNSLKPEDTAVYYCNKGQYSHLNSYGDDYWGQGTQVTVSS | high polyreactivity
6 | QVQLVESGGGLVQAGGSLRLSCAASGSTFERYVMGWYSQAPGKARELVADINSGGSTNYADSVKGRFTISRDNAKNTVYLQMNSLKPEDTAVYYCAAKRRYYGPWSRMGYDYWGQGTQVTVSS | low polyreactivity
7 | QVQLVESGGGLVQAGGSLRLSCAASGFIFGYNAMGWSRQAPGKERELVAAITWSGGSTYYADSVKGRFTISRDIAKNTVYLQMNSLKPEDTAVYYCNWPGEGDYWGQGTQVTVSS | low polyreactivity
8 | QVQLVESGGGLVQAGGSLRLSCAASGIIFNPYALGWYRHAPGKERELVATISRGGRTNYADSVKGRFTISRDNAKNTVYLQLHSLKPEDTAVYYCNKTASGRYHYDYWGQGTQVTVSS | low polyreactivity
9 | QVQLVESGGGLVQAGGRLRLSCAASGGTFYLNAMGWYRQAPGKERELVAAISGSGTSTYYADSVKGRFTISRDNAKNTVYLQMNSLKPEDTAVYYCAADGTYFYIYLGDRFDYWGQGTQVTVSS | low polyreactivity
10 | QVQLVESGGGLVQAGGSLRLSCAASGTTLVRYAMGWYRQAPGKERELVASISYSGGSTHYADSVKGRFTISRDNAKNTVYLQMNSLKPEDTAVYYCAARPYYSWGGHYYWGQGTQVTVSS | high polyreactivity
11 | QVQLVESGGGLVQAGGSLRLSCASSGSIFGAYAMGWYRQAPGKERELVAAITSVGSTYYADSVKGRFTISRDNAKNTVYVQMNSLIPEDTAVYYCAKRQWRPTYRYGYWGQGTQVTVSS | low polyreactivity
12 | QVQLVESGGGLVQAGGSLRLSCAASGFTLKWYAMGWYRQAPGKERELVAAINDRGGNTYYADSVKGRFTISRDNAKNTVYLQMNSLKPEDTAVYYCAVRGKTYRPYYYWGQGTQVTVSS | high polyreactivity
13 | QVQLEESGGGLLQAGGSLRLSCAATGSTFVTYAMGWYRQAPGKERELVAAISSGGGNTYYADSVKGRFTISRDNAMNSVYLQMHSLKPEDTAVYLCAADNPRSEYDYWGQGTQVTVSA | high polyreactivity
14 | QVQLVESGGGLVQAGGSLRLSCAASGSTFTTNAMGWYRQAPGKERELVATISRGGSTYYADSVKGRFTISRDNAKNTVYIQMNRLKPEDTAVYYCATDVQVPGIGRSVYAYEYWGQVTQVTVSS | low polyreactivity
15 | QVQLVESGGGLVQAGGSLRLSCAASGRTFYSYAMGWYRQAPGKERELVATIRRGGRTNYADSVKGRFTISRDNAKNTVYLQMNSLKPEDTAVYYCAAEDYLSWVTSTYDYWGQGTQVAVSS | low polyreactivity
16 | QVQLVESGGGLVQAGGSLRLSCAASGLIFNLYAMGWYRQAPGKEREFVATITGIGGSTYYADSVKGRFTISRDNANNTVYLQMTSLKPEDTAVYYCAADAWFLPYNYWGQGTQVTVSS | low polyreactivity
17 | QVQLVESGGGLGQAGGSLRLSCAASGIIFLDNAMGWYRQAPGKERELVAAYADSVKGRFTISRDNSNNTVYLQMNSLKPEDTAVYYCNVVLYKYSPTDSWITYDYWGQGTQVTVSS | low polyreactivity
18 | QVQLVESGGGLDQAGGSLRLSCAASGSTFSRYAMGWYRQPPGKERELVAAISWRGGSTYYADSVKGRFTISRDNAKNTVYLQMNSLKPEDTAVYYCNKAGFWFVVYKRQEYWGQGTQVTVSS | high polyreactivity
19 | QVQLVESGGGLVQAGGSLSLSCAASGRIFNRNAMGWYRQAPGKEREFVAAISYSSGSTYYADSVKGRFTISRDNAKNTVYLQMNSLKPEDTAVYYCAAKVYNSRRNGYFGWTWGGYDYWGQGTQVTVSS | high polyreactivity
20 | QVQLVESGGGLVQAGGSLSLSCAASGRIFGRNAMGWYRQAPGKERELVAAISSSGGTYYADSVKGRFTISRDNAKNTVYLQMISLKPEDTAVYYCNDRVRTQQRWVDYWGQGTQVTVSS | high polyreactivity
21 | QVQLVESGGGLVQAGGSLRLSCAASGSIFWTNAMGWYRQAPGKERELVAAIRVSTGSTYYADSVKGRFTISRDIAKNNVYLQMNSLKPEDTAVYYCNADLYIYEWYPALHSNDYWGQGTQVTVSS | low polyreactivity
22 | QGQLVESGGGLVQAGGSLRLSCAAYGSIYRNYAMGSYRQAPGKEREFVAAITTRGGRTYYADSVKGRFTISRDNAKNPVYLQINSLKPEDTAVYYCAARSYSEYNYWGQGTLVTVSS | high polyreactivity

Row | Sequence | polyreactivity (PSR sort gate)
23 | QVQLQESGGGLVQAGGSLRMSCAASGTIVSEANMGWYRQAPGKERELVATIGQGSTTNYADSVKGRFTISRDNAKNTVYLQMNSLKPEETAVYYCAVVTVDPVGFVYWGQGTQVTVSS | low polyreactivity
24 | QVQLVESGGGLVQAGGSLRLSCAASGRTFLVYAMGWYRQAPGKERELVAAITYSDGSTYYADSVKGRFTISRDNAKNTVYLQMNSLKPEDTAVYFCAADSSTFPSDYYWGKGTQVTVSS | low polyreactivity
25 | QVQLVESGGGLVQAGGSLRLSCAASGYIFYIYAKGWNRQAPGKERELVAAISYSDGTTYYADSVKGRFTISRDNAKNTVYLQMNSLKAEDTAVYYCAADLWVGLVSLWDGYVEYDYWGQGTQVTVSS | low polyreactivity
26 | QVQLVESGGGLVQAGGSLRLSCAASGRIFKYYTMGWYRQATGKEREFVASITGSGGTTYYADSVKGRFTISRDNAKNTVYLQMNSLKPEDTAVYYCNAYSYPYWYRYYYWGQGTQVTVSS | high polyreactivity
27 | QVQLVESGGGLVQAGGSLRLSCAASGRTFGLYDMGWYRQAPGKERELVAGITRRGGCTYYADSVKGRFTISRDNAKNTVYLQMYSLKPEDTAVYYCAAGTIYLRHAQSPFDYWGQGTQVTVSS | high polyreactivity
28 | QVQLVETGGGLVQAGGSLRLSFAASGIISYHNAMGWYRQAPGKERELLAGITYSGGSTYYEDSVKGRFTISRVNAKNTVYLQMNSMKPEDTAVYFCAARVVYWTWSCLSKMDYWGQGTQVTVSS | high polyreactivity
29 | QVQLVESGGGLVQAGGSIRLSCAASGITFYRNARGWYRQAPGKEMELVAAITWNGGRTYYADSVKGRFTISRDNAKNTVYLQMNSLKPEDTAVYYCAAAYPTYRHYYWGQGTQVTVSS | low polyreactivity
30 | QVQLVESGGGLVQAGGSLRLSCAASGRTFSDYAMGWYRQAPGKERELVAAITSSGGSTYYADSVKGRFTISRDNAKNTVYLQMNSLKPEDTAVYYCAKVWYGDRNIDRYDYWGQGTQVTVSS | high polyreactivity
31 | QVQLVESGGGLVQAGGSLRLSCAASGIIFYYNAMGWYRQAPGKERELVAAIDDRGDSTYYADSVKGRFTISRDNAKNTVYLEMNSLKPEDTAVYYCATDGHYLYSWYKYDYWGQGTQVTVSS | low polyreactivity
32 | QVQLVESGGGLVQAGGSLRLSCASSGSIFSTYAMGWYRQAPGKEMELVATIRRGGSTYYADSVKGPFTISRDNAKNTVYLQMNSLKPEDTELYYCAAAGGRFIRYGYWGQGTQVTVSS | high polyreactivity
33 | QVQLVESGGGLVQAGGSLRISCAASGLIFYSYAMGWYRQAPGKERELVAAISSGTRTYYADSVKGRFTISRDNAKNTVYLQMNSLKPEDTAVYYCAAVDAHKKRYPPSGRLYGYWGQGTQVTVSS | high polyreactivity
34 | QVQLVESAGGLVQAGGSLRLSCAASGSIFSDNPMGWYIQAPGKERALVASITNSGSTNYADSVKGRFTISRDNAKNTVYLQMNILKPEDTAVYYCAFSFLYTYDNWGQGTQVTVSS | low polyreactivity
35 | QVQLVESGGGLVQAGGSLRLSCAASGSIFTFYAMGWYRQAPGKERELVATINRIGGNTYYADSVKGRFTISRDNAKNTVYLQMNSLKPEDTAVYYCAAKPTYRGYGYGSWGQGTQVTVSS | low polyreactivity
36 | QVQLVESGGGLVQAGGSLSLSCAASGGTFLSNAMGWYRQAPGKERELVASISWGGGSTTYADSVKGRFTISRDNAKNTVYLQMNSLKPEDTAVYYCNALDGPGYYVDYDYWGQGTQVTVSS | low polyreactivity
37 | QVQLVESGGGLVQAGGSLRLSCAASGLIFPVYDMGWYRQAPGKERELVAAITRSGDSTYYADSVKGRFTISRDNAKNTVYLQMNSLKPEDTAVYYCAAQPGTASYAGDGDSWGQGTQVTVSS | low polyreactivity
38 | QVQHVESGGGLVQAGGSLRLSCAASGRIFGTYAMGWYRPAPGKERELVAAISWRGGSTYYADSVKGRFTISRDNAKNTVYLQMNSLKPEDTAVYYCAATWWSPSRGTKGDYWGQGTQVTVSS | low polyreactivity
39 | QVQLVESGGGLVQAGGSLRLSCAASGFTFGGYAMGWYRQAPGKERELVAAINSIGGTTYYADSVKGRFTISRDNAKNTVYLQMNRLKPEDTAVYYCAAGFYGYARHTWYNYWGQGTQVTVSS | high polyreactivity
40 | QVQLVESGGGLVQAGGSLRLSCAASGRILGRNAMGWYRQAPGKERELVATITSRGGSTYYADSVKGRFTISRDNAKNTVYLQMNSLKPEDTAVYYCAAPRYYYYSYDYWGQGTQVTVSS | high polyreactivity
41 | QVLLVESGGGLVQAGGSLRLICAASGSIFGVYAMGWFRQAAGKDRELVAAISLSGTSTYYADSVKGRFTISRDNAKNTVYLQMNSLKAEDTAVYYCAAPWRLFSLYDYWGQGTQVTVSS | low polyreactivity
42 | QVQLVESGGGLVQAGGSLRLSCAASGRTFYHYTMGWYRQAPGKERELVARITRRVGSTYYADSVKGRFTISRDNAKNTVYLQMNSLKPEDTAVYYCNDKSGLYRYLLDYWGQGTQVTVSS | high polyreactivity
43 | QVQLVDSGGGLVQAGGSLRLSCAASGSIFRYNDMGWYRQAPGKERELVATITSGTNTYYADSVKGRFTISRDNEKNTVYLQMNSLKPEDTAVYYCAAGYPSWYYGYPYDSWGQGTQVTVSS | low polyreactivity
